Measured values from PMC5548745, “Agonist-induced dimer dissociation as a macromolecular step in G protein-coupled receptor signaling” (Nature Communications, 2017).

Columns and labels:
[1] = test system: ERK1/2 phosphorylation in MLE-12 cells; assay: P-ERK1/2 immunoblot, WNT-5A stimulated MLE-12 cells; type: cell-based, mouse; conditions: 300 ng ml^−1 WNT-5A
Description: MLE-12 or HEK293 cells (ATCC) were plated in a 24- or 48-well plate at a density of 100,000 or 50,000 cells/well, respectively. After 24 h, cells were transfected using Lipofectamine 2000 according to the manufacturer’s instructions. Cells were stimulated (24 h post-transfection) with 300 ng ml^−1 recombinant carrier-free WNT-5A (CF WNT-5A; R&D Systems). Stimulation was stopped by the addition of lysis buffer (1% NP-40, 150 mM NaCl, 50 mM Tris/HCl pH 8). Lysates were sonicated and analyzed by 7.5 or 10% Mini-PROTEAN TGX precast polyacrylamide gels (Bio-Rad) and transferred to PVDF membranes using the Trans-Blot Turbo system (Bio-Rad). […] Proteins were detected with horseradish peroxidase-conjugated secondary antibodies (goat anti-rabbit and goat anti-mouse (Pierce)) and Clarity Western ECL Blotting Substrate (Bio-Rad). […]
Supplementary Figure 6: FZD6 in mouse lung epithelial cells, related to Figure 6. […] The bar graph depicts expression levels of fzd1-10 mRNA in mouse lung epithelial cells (MLE-12) measured by quantitative PCR. […] Primer efficiency has been quantified previously (Halleskog et al., 2012). (b) MLE-12 wt and CRISPR/Cas9 FZD6+/- cells were seeded in a 24-well plate and counted after trypsinization at the indicated time points. Cell proliferation was quantified by cell counting in a Bürker chamber. […]

FZD6–FZD6 dimer = assay: dcFRAP of V5-FZD6-mCherry/FZD6-GFP (FZD6 dimerization); type: cell-based, human; conditions: HEK293, after CL
Outline: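 Live cells co-expressing V5-FZD6-mCherry and FZD6-GFP, surface V5 tag crosslinked with biotin-anti-V5 plus avidin in BE buffer at RT. Membrane areas photobleached, recovery imaged (488/561 nm) over 100 s; mobile fraction from background/bleach-corrected, pre-bleach-normalized intensity at 85-101 s. Cells with <40% crosslink-induced mobility reduction excluded.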

B1: WNT-5A: recombinant carrier-free WNT-5A (R&D Systems), agonist for FZDs (protein, UniProt P41221 62-380, looked up)
Protein Wnt-5a: IIGAQPLCSQLAGLSQGQKKLCHLYQDHMQYIGEGAKTGIKECQYQFRHRRWNCSTVDNTSVFGRVMQIGSRETAFTYAVSAAGVVNAMSRACREGELSTCGCSRAARPKDLPRDWLWGGCGDNIDYGYRFAKEFVDARERERIHAKGSYESARILMNLHNNEAGRRTVYNLADVACKCHGVSGSCSLKTCWLQLADFRKVGDALKEKYDSAAAMRLNSRGKLVQVNSRFNSPTTQDLVYIDPSPDYCVRNESTGSLGTQGRLCNKTSEGMDGCELMCCGRGYDQFKTVQTERCHCKFHWCCYVKCKKCTEIVDQFVCK
phosphorylation of ERK1/2 on WNT-5A stimulation [1]: time-dependent, partially pertussis toxin-sensitive phosphorylation of ERK1/2 | time of maximal increase in P-ERK1/2 ([1]; 0–20 min, three independent experiments): 5 min | mobile fraction of FZD6-GFP after WNT-5A, 5 min (FZD6–FZD6 dimer; WNT-5A 300 ng ml^−1, 5 min, 12 ROIs): 71.8 ± 3.2% | mobile fraction of FZD6-GFP after WNT-5A, 20 min (FZD6–FZD6 dimer; WNT-5A 300 ng ml^−1, 20 min, 15 ROIs): 61.0 ± 2.2%
